Substitutions are numbered along the chain they refer to.

This passage reports binding result and IC50 results from patent EP1557429A1 (Vectron Therapeutics AG, dated 2005).

In assay [1] the target is T1, EGF receptor (UniProt P00533 25-1210, limits assumed).
T1 construct: whole, on cells; also called epidermal growth factor receptor
Briefly: immunofluorescence of phage on A431 cells.

For assay [2], the target named is T1, EGF receptor. Nature of the assay: competition of fdEGF phage binding to A431 cells, FACS, inhibition from mean fluorescence intensity.

B1: EGF1 library clone 3 (phage-displayed EGF variant) (other)
chain: NSDSECPLSHDGYCLHDGVCMYIEALDEYACNCVVGYIGERCQYRDLRWWELR
modifications: displayed on phage as a coat protein fusion (pHEN3)
notes: also called EGF1 # 3; not shown: phage coat protein fusion partner of phagemid pHEN3 (and any vector tags) at the C end
For the molecule B1, the binding result in assay [1] was “binds”.

B2: HisEGFm1 (EGFm1 with N-terminal hexahistidyl tag) (ligand, human, UniProt P01133 971-1023, looked up)
chain: B1 chain with E28Q, R45S, R48S, R53S
notes: mature; Clone 6 of the EGF2 library selection, expressed in the E. coli periplasm and purified by IMAC; The preparation also held molecules of about 15 kDa (dimer size); also called purified EGFm1; soluble EGFm1; not shown: N-terminal hexahistidyl tag (HHHHHH); primer SfiHisEGF encodes ...Met-Ala-Gly-His6-Ala befor
In turn, B2 displayed an IC50 in assay [2] of approximately 500 nM.
